For this test, the target named is Human PD-1 fusion protein (human) (UniProt Q15116). The test is described as follows: ELISA on coated human PD-1/IgG chimera (2.5 ug/ml), HRP anti-murine antibody. In general terms: ELISA stands for enzyme-linked immunosorbent assay.

Consider one substance from patent US20040213795A1.

The term EC50 (read off the curve) denotes the concentration needed to bring the measured effect to its halfway point. Read a high EC50 (read off the curve) as a need for much substance.

Chain of Human PD-1 fusion protein (human) (Q15116 other isoform, or with tags, fused parts or gaps): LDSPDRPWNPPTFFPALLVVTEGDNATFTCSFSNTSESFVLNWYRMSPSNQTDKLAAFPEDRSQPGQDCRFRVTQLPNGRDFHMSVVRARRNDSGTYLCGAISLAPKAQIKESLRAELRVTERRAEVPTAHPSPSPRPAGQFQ

As to Murine anti-human PD-1 antibody J110, the 50% effective concentration (EC50 (read off the curve)) worked out at 1 µg/mL.
